Reference: the supplement of paper PMC10065799, “High-throughput profiling of sequence recognition by tyrosine kinases and SH2 domains using bacterial peptide display” (eLife, 2023)

What follows are sequences tested against Fyn (UniProt P06241) (assay: phosphorylation enrichment, bacterial display (enrichment ratio); higher = better substrate or ligand; peptides without Tyr show the background).
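Also: 11-residue human phosphosite peptides and single-mutation variants displayed on the E. coli surface, counted by deep sequencing, each peptide's frequency after selection divided by its frequency in the unselected input library; frequency after pTyr selection over input frequency; kinase dosed for 20-30% of maximal phosphorylation in three min.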

Fyn, sequence (P06241 whole entry, looked up): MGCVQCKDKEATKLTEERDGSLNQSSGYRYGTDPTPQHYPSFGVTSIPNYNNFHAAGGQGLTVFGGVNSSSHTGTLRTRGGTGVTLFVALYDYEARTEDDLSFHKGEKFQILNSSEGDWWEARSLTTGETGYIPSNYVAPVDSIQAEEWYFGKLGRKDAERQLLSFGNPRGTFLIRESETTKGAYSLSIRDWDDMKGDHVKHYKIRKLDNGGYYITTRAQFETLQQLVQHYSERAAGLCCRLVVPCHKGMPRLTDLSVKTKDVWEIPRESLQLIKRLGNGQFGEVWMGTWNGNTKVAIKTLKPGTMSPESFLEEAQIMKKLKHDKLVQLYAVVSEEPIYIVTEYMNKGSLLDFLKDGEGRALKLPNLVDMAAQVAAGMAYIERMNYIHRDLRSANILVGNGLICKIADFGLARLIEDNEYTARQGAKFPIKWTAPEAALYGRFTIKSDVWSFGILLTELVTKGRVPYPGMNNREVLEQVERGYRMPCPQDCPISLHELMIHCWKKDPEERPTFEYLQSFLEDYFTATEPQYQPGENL

Row | Sequence | phosphorylation enrichment
1 | FKGKNYKPLDL [RPL35_Y78_K77N_YF] | 0.354
2 | QQIFTYDSGIH [JUP_Y22_T19I_YF] | 0.897
3 | VKPENDRRLDI [VHL_Y175_Y175D] | 0.43
4 | LAETSYVIVLE [MAGEA1_Y276_K278I] | 0.791
5 | SRDTRYLVLAV [AMH_Y195] | 0.492
6 | EEGRVYVFRLS [ITGAE_Y549_YF] | 0.509
7 | DPLLTYLFPPK [LMNA_Y481_R482L] | 1.8
8 | ITVCDYTNPCT [MYD88_Y276] | 0.401
9 | VDTGVYAVPPP [BCAR1_Y410_S407T] | 8.6
10 | NCFKFYMSDDI [ATRX_Y204_YF] | 0.386
11 | RLLVIYPWTQR [HBG2_Y36_V35I] | 0.793
12 | SLLLSYFLIKW [NUP160_Y773_P768S_YF] | 0.589
13 | AERKLYRNVML [ZNF569_Y33_Q29E] | 0.337
14 | AEEEIYGEFEA [Src_opt_1995] | 1.26
15 | VGRVGYVSGWG [HP_Y280] | 0.456
16 | VDDEIYFFRKP [PBRM1_Y1289_YF] | 6.18
17 | FSNPAYYVLEG [INPPL1_Y986_N982S] | 1.32

Row | Sequence | phosphorylation enrichment
18 | DYTEAYNSKIK [CLK1_Y305_P307S] | 0.339
19 | IEENGYNTFAS [FGF10_Y161_YF] | 0.451
20 | LTECGYSFTTT [ACTB_Y198_R196C] | 0.582
21 | LEKRAYICAHP [ACAD9_Y611] | 0.457
22 | YAREGYSALPQ [SARS2_Y52] | 0.396
23 | SLDHPYEKPRK [INAVA_Y333] | 0.371
24 | ADNSAYLMGLN [MYH7_Y386_K383N] | 0.514
25 | KAESWYQTKYE [KRT75_Y342_E337K] | 0.485
26 | FECKWYIPLTD [BCR_Y756_D752E_YF] | 0.434
27 | TGDFGYRAPGY [TNS2_Y668] | 0.477
28 | CTTIYYNYMCN [TP53_Y234_H233Y] | 8.51
29 | TTICKYSTPME [GUCY2C_Y839] | 0.35
30 | TPTYPYLLPKS [PLD2_Y580] | 0.452
31 | HSLLQYGGSAN [ANK1_Y624_R619H] | 0.427
32 | NPQKSYFILLY [WAS_Y83_R86L] | 0.421
33 | QPDLLYDHIQP [TRRAP_Y862_F860L] | 13.5

What follows are sequences tested against MERTK (UniProt Q12866) in the same assay as above.
MERTK, sequence (Q12866 whole entry, looked up): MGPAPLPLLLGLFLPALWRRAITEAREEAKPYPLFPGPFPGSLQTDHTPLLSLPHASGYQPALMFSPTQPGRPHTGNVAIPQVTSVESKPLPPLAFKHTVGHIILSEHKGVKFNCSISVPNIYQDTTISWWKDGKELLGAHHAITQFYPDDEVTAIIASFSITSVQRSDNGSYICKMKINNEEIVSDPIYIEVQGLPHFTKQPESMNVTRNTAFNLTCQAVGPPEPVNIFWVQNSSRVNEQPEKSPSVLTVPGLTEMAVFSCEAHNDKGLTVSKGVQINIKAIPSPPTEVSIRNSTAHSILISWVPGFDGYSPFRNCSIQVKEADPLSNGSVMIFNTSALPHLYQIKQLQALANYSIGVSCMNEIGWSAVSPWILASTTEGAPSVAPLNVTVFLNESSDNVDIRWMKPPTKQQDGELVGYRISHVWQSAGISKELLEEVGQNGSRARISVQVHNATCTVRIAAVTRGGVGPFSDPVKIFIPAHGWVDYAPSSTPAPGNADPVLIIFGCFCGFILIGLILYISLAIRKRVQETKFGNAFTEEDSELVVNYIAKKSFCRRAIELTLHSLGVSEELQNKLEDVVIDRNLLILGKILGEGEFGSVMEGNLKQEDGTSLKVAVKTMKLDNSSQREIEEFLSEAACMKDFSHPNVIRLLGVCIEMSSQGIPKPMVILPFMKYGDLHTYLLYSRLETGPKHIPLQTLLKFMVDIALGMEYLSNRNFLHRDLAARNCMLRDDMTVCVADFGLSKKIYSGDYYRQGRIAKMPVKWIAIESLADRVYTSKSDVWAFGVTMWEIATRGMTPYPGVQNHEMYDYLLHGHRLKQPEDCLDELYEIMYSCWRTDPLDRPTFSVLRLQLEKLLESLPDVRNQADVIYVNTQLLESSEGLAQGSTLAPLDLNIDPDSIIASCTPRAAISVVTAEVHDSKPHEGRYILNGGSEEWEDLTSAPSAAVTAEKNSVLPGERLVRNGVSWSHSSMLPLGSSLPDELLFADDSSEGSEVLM

Row | Sequence | phosphorylation enrichment
34 | FKGKNYKPLDL [RPL35_Y78_K77N_YF] | 0.359
35 | QQIFTYDSGIH [JUP_Y22_T19I_YF] | 0.901
36 | VKPENDRRLDI [VHL_Y175_Y175D] | 0.531
37 | LAETSYVIVLE [MAGEA1_Y276_K278I] | 0.616
38 | SRDTRYLVLAV [AMH_Y195] | 0.487
39 | EEGRVYVFRLS [ITGAE_Y549_YF] | 0.475
40 | DPLLTYLFPPK [LMNA_Y481_R482L] | 0.772
41 | ITVCDYTNPCT [MYD88_Y276] | 0.426
42 | VDTGVYAVPPP [BCAR1_Y410_S407T] | 9.22
43 | NCFKFYMSDDI [ATRX_Y204_YF] | 0.394
44 | RLLVIYPWTQR [HBG2_Y36_V35I] | 0.58
45 | SLLLSYFLIKW [NUP160_Y773_P768S_YF] | 0.514
46 | AERKLYRNVML [ZNF569_Y33_Q29E] | 0.383
47 | AEEEIYGEFEA [Src_opt_1995] | 0.58
48 | VGRVGYVSGWG [HP_Y280] | 0.406
49 | VDDEIYFFRKP [PBRM1_Y1289_YF] | 0.796
50 | FSNPAYYVLEG [INPPL1_Y986_N982S] | 6.51

Row | Sequence | phosphorylation enrichment
51 | DYTEAYNSKIK [CLK1_Y305_P307S] | 0.454
52 | IEENGYNTFAS [FGF10_Y161_YF] | 0.506
53 | LTECGYSFTTT [ACTB_Y198_R196C] | 0.417
54 | LEKRAYICAHP [ACAD9_Y611] | 0.479
55 | YAREGYSALPQ [SARS2_Y52] | 0.442
56 | SLDHPYEKPRK [INAVA_Y333] | 0.329
57 | ADNSAYLMGLN [MYH7_Y386_K383N] | 0.473
58 | KAESWYQTKYE [KRT75_Y342_E337K] | 0.433
59 | FECKWYIPLTD [BCR_Y756_D752E_YF] | 0.433
60 | TGDFGYRAPGY [TNS2_Y668] | 0.31
61 | CTTIYYNYMCN [TP53_Y234_H233Y] | 7.86
62 | TTICKYSTPME [GUCY2C_Y839] | 0.446
63 | TPTYPYLLPKS [PLD2_Y580] | 0.564
64 | HSLLQYGGSAN [ANK1_Y624_R619H] | 0.386
65 | NPQKSYFILLY [WAS_Y83_R86L] | 0.396
66 | QPDLLYDHIQP [TRRAP_Y862_F860L] | 14.4

The sequences below were run on c-Src in the same assay as above.

Row | Sequence | phosphorylation enrichment
67 | FKGKNYKPLDL [RPL35_Y78_K77N_YF] | 0.487
68 | QQIFTYDSGIH [JUP_Y22_T19I_YF] | 0.939
69 | VKPENDRRLDI [VHL_Y175_Y175D] | 0.356
70 | LAETSYVIVLE [MAGEA1_Y276_K278I] | 1
71 | SRDTRYLVLAV [AMH_Y195] | 0.514
72 | EEGRVYVFRLS [ITGAE_Y549_YF] | 0.625
73 | DPLLTYLFPPK [LMNA_Y481_R482L] | 3.12
74 | ITVCDYTNPCT [MYD88_Y276] | 1.26
75 | VDTGVYAVPPP [BCAR1_Y410_S407T] | 4.89
76 | NCFKFYMSDDI [ATRX_Y204_YF] | 0.447
77 | RLLVIYPWTQR [HBG2_Y36_V35I] | 0.588
78 | SLLLSYFLIKW [NUP160_Y773_P768S_YF] | 0.512
79 | AERKLYRNVML [ZNF569_Y33_Q29E] | 0.312
80 | AEEEIYGEFEA [Src_opt_1995] | 1.14
81 | VGRVGYVSGWG [HP_Y280] | 0.507
82 | VDDEIYFFRKP [PBRM1_Y1289_YF] | 5.57
83 | FSNPAYYVLEG [INPPL1_Y986_N982S] | 1.43

Row | Sequence | phosphorylation enrichment
84 | DYTEAYNSKIK [CLK1_Y305_P307S] | 0.492
85 | IEENGYNTFAS [FGF10_Y161_YF] | 0.628
86 | LTECGYSFTTT [ACTB_Y198_R196C] | 0.671
87 | LEKRAYICAHP [ACAD9_Y611] | 0.462
88 | YAREGYSALPQ [SARS2_Y52] | 0.373
89 | SLDHPYEKPRK [INAVA_Y333] | 0.352
90 | ADNSAYLMGLN [MYH7_Y386_K383N] | 0.587
91 | KAESWYQTKYE [KRT75_Y342_E337K] | 0.457
92 | FECKWYIPLTD [BCR_Y756_D752E_YF] | 0.451
93 | TGDFGYRAPGY [TNS2_Y668] | 0.441
94 | CTTIYYNYMCN [TP53_Y234_H233Y] | 6.51
95 | TTICKYSTPME [GUCY2C_Y839] | 0.474
96 | TPTYPYLLPKS [PLD2_Y580] | 0.581
97 | HSLLQYGGSAN [ANK1_Y624_R619H] | 0.357
98 | NPQKSYFILLY [WAS_Y83_R86L] | 0.416
99 | QPDLLYDHIQP [TRRAP_Y862_F860L] | 10.3

Each sequence was assayed against Hck (UniProt P08631) in the same assay as above.
Hck, sequence (P08631 whole entry, looked up): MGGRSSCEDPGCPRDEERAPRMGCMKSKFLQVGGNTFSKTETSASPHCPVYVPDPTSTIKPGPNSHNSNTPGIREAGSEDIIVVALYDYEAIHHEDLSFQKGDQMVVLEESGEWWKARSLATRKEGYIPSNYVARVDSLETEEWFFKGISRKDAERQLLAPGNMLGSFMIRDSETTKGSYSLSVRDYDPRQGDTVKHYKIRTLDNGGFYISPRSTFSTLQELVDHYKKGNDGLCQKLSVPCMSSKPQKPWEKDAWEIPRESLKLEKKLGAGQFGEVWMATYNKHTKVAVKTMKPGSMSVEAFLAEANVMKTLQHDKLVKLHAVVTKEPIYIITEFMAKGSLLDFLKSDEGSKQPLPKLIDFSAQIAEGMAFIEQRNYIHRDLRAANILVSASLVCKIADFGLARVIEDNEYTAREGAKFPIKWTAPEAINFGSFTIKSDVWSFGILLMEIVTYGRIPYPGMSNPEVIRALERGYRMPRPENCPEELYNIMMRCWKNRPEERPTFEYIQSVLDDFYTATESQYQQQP

Row | Sequence | phosphorylation enrichment
100 | FKGKNYKPLDL [RPL35_Y78_K77N_YF] | 0.38
101 | QQIFTYDSGIH [JUP_Y22_T19I_YF] | 0.833
102 | VKPENDRRLDI [VHL_Y175_Y175D] | 0.43
103 | LAETSYVIVLE [MAGEA1_Y276_K278I] | 0.727
104 | SRDTRYLVLAV [AMH_Y195] | 0.476
105 | EEGRVYVFRLS [ITGAE_Y549_YF] | 0.617
106 | DPLLTYLFPPK [LMNA_Y481_R482L] | 0.87
107 | ITVCDYTNPCT [MYD88_Y276] | 0.415
108 | VDTGVYAVPPP [BCAR1_Y410_S407T] | 7.67
109 | NCFKFYMSDDI [ATRX_Y204_YF] | 0.512
110 | RLLVIYPWTQR [HBG2_Y36_V35I] | 0.635
111 | SLLLSYFLIKW [NUP160_Y773_P768S_YF] | 0.654
112 | AERKLYRNVML [ZNF569_Y33_Q29E] | 0.319
113 | AEEEIYGEFEA [Src_opt_1995] | 1.12
114 | VGRVGYVSGWG [HP_Y280] | 0.415
115 | VDDEIYFFRKP [PBRM1_Y1289_YF] | 5.24
116 | FSNPAYYVLEG [INPPL1_Y986_N982S] | 0.778

Row | Sequence | phosphorylation enrichment
117 | DYTEAYNSKIK [CLK1_Y305_P307S] | 0.382
118 | IEENGYNTFAS [FGF10_Y161_YF] | 0.477
119 | LTECGYSFTTT [ACTB_Y198_R196C] | 0.555
120 | LEKRAYICAHP [ACAD9_Y611] | 0.476
121 | YAREGYSALPQ [SARS2_Y52] | 0.58
122 | SLDHPYEKPRK [INAVA_Y333] | 0.39
123 | ADNSAYLMGLN [MYH7_Y386_K383N] | 0.603
124 | KAESWYQTKYE [KRT75_Y342_E337K] | 0.459
125 | FECKWYIPLTD [BCR_Y756_D752E_YF] | 0.538
126 | TGDFGYRAPGY [TNS2_Y668] | 0.376
127 | CTTIYYNYMCN [TP53_Y234_H233Y] | 6.93
128 | TTICKYSTPME [GUCY2C_Y839] | 0.413
129 | TPTYPYLLPKS [PLD2_Y580] | 0.441
130 | HSLLQYGGSAN [ANK1_Y624_R619H] | 0.505
131 | NPQKSYFILLY [WAS_Y83_R86L] | 0.434
132 | QPDLLYDHIQP [TRRAP_Y862_F860L] | 15.1
